The PETadex activity labels (doi:10.3390/ijms25158120)

Columns and labels:
p-NP-C4 = conditions: pH 6; 70 °C
[1] = Melting temperature [DSF / Thermofluor]; conditions: pH 8.5
pNPB [2] = experiment: Proxy for plastic degradation [Residual activity]; conditions: pH 7
pNPB [3] = experiment: Proxy for plastic degradation [Relative activity]; conditions: pH 7
pNPB [4] = experiment: Proxy for plastic degradation [Specific activity]
PET [5] = experiment: Proxy for plastic degradation [Released monomer concentration (HPLC/LC-MS) (TPA)]; conditions: pH 7
PET [6] = experiment: Proxy for plastic degradation [Released monomer concentration (HPLC/LC-MS) (BHET)]; conditions: pH 7
BHET = experiment: Proxy for plastic degradation [Released monomer concentration (HPLC/LC-MS) (MHET)]; conditions: pH 7
PET [7] = experiment: as above; conditions: pH 7
PET [8] = experiment: Proxy for plastic degradation [Released monomer concentration (HPLC/LC-MS) (TPA+MHET+BHET)]; conditions: pH 7
PET [9] = experiment: Proxy for plastic degradation [Released monomer concentration (HPLC/LC-MS) (TPA+MHET+BHET+Total aromatic products)]; conditions: pH 7, 0 h
[10] = 30 °C, 0 h, part of the chain shown
[11] = 30 °C, 48 h, part of the chain shown
[12] = 30 °C, 72 h, part of the chain shown
[13] = 30 °C, 96 h, part of the chain shown

B1: unnamed (protein)
chain: MKIVKTLLTVIFSVLMVVSMAHAVQIGPNPTSTLLNGDGPFAVSSSSVSSLACGTGCAGGTVYYPTTAGQYGVIAVCPGYTGTSSSIAWFARRLATHGFVTIAMDTNSTLDYPSSRATQLAAALRYLINSSSSTIRSRIRTADRGVAGHSMGGGGTLIASADDSTLRVGIPMTPWNTYTSFSSVRVPQMIFGADGDTIASASSHARPFYNSITQAEKAYALLNDASHFTPNSTDQRIGRYGVAFAKRFVDGDTRYNPFLCGAEHTAYATSSRFDTYLSNCPY
Km (p-NP-C4): 80 µM
kcat (p-NP-C4): 447 s⁻¹
kcat/Km (p-NP-C4): 5.59e+06 M⁻¹ s⁻¹
Melting temperature [1]: 82 °C
Proxy for plastic degradation (pNPB [2]; 50 °C, 0 h): 100%
Proxy for plastic degradation (pNPB [2]; 50 °C, 0.33 h): 54%
Proxy for plastic degradation (pNPB [2]; 50 °C, 0.5 h): 38%
Proxy for plastic degradation (pNPB [2]; 50 °C, 1 h): 49%
Proxy for plastic degradation (pNPB [2]; 50 °C, 2 h): 57%
Proxy for plastic degradation (pNPB [2]; 50 °C, 3 h): 46%
Proxy for plastic degradation (pNPB [2]; 50 °C, 6 h): 65%
Proxy for plastic degradation (pNPB [2]; 50 °C, 24 h): 52%
Proxy for plastic degradation (pNPB [2]; 50 °C, 48 h): 55%
Proxy for plastic degradation (pNPB [2]; 50 °C, 72 h): 43%
Proxy for plastic degradation (pNPB [2]; 50 °C, 96 h): 30%
Proxy for plastic degradation (pNPB [2]; 70 °C, 0 h): 100%
Proxy for plastic degradation (pNPB [2]; 70 °C, 0.33 h): 54%
Proxy for plastic degradation (pNPB [2]; 70 °C, 0.5 h): 51%
Proxy for plastic degradation (pNPB [2]; 70 °C, 2 h): 70%
Proxy for plastic degradation (pNPB [2]; 70 °C, 3 h): 51%
Proxy for plastic degradation (pNPB [2]; 70 °C, 6 h): 50%
Proxy for plastic degradation (pNPB [2]; 70 °C, 24 h): 52%
Proxy for plastic degradation (pNPB [2]; 70 °C, 48 h): 47%
Proxy for plastic degradation (pNPB [2]; 70 °C, 72 h): 20%
Proxy for plastic degradation (pNPB [2]; 70 °C, 96 h): 17%
Proxy for plastic degradation (pNPB [3]; 50 °C, 0 h): 100%
Proxy for plastic degradation (pNPB [3]; 50 °C, 0.33 h): 55%
Proxy for plastic degradation (pNPB [3]; 50 °C, 0.5 h): 38%
Proxy for plastic degradation (pNPB [3]; 50 °C, 1 h): 50%
Proxy for plastic degradation (pNPB [3]; 50 °C, 2 h): 60%
Proxy for plastic degradation (pNPB [3]; 50 °C, 4 h): 48%
Proxy for plastic degradation (pNPB [3]; 50 °C, 6 h): 65%
Proxy for plastic degradation (pNPB [3]; 50 °C, 24 h): 50%
Proxy for plastic degradation (pNPB [3]; 50 °C, 48 h): 52%
Proxy for plastic degradation (pNPB [3]; 50 °C, 72 h): 40%
Proxy for plastic degradation (pNPB [3]; 50 °C, 96 h): 35%
Proxy for plastic degradation (pNPB [3]; 70 °C, 0 h): 100%
Proxy for plastic degradation (pNPB [3]; 70 °C, 0.33 h): 55%
Proxy for plastic degradation (pNPB [3]; 70 °C, 0.5 h): 52%
Proxy for plastic degradation (pNPB [3]; 70 °C, 1 h): 50%
Proxy for plastic degradation (pNPB [3]; 70 °C, 2 h): 70%
Proxy for plastic degradation (pNPB [3]; 70 °C, 4 h): 50%
Proxy for plastic degradation (pNPB [3]; 70 °C, 6 h): 48%
Proxy for plastic degradation (pNPB [3]; 70 °C, 24 h): 50%
Proxy for plastic degradation (pNPB [3]; 70 °C, 48 h): 40%
Proxy for plastic degradation (pNPB [3]; 70 °C, 72 h): 20%
Proxy for plastic degradation (pNPB [3]; 70 °C, 96 h): 18%
Proxy for plastic degradation (pNPB [4]; pH 4): 0 U/mg
Proxy for plastic degradation (pNPB [4]; pH 5): 225 U/mg
Proxy for plastic degradation (pNPB [4]; pH 7): 200 U/mg
Proxy for plastic degradation (pNPB [4]; pH 7, 50 °C): 500 U/mg
Proxy for plastic degradation (pNPB [4]; pH 9): 150 U/mg
Proxy for plastic degradation (pNPB [4]; pH 10): 75 U/mg
Proxy for plastic degradation (PET [5]; 30 °C, 0 h): 0 µM
Proxy for plastic degradation (PET [5]; 50 °C, 0 h): 0 µM
Proxy for plastic degradation (PET [5]; 50 °C, 48 h): 140 µM
Proxy for plastic degradation (PET [5]; 50 °C, 96 h): 330 µM
Proxy for plastic degradation (PET [5]; 70 °C, 0 h): 0 µM
Proxy for plastic degradation (PET [5]; 70 °C, 24 h): 180 µM
Proxy for plastic degradation (PET [6]; 30 °C, 0 h): 0 µM
Proxy for plastic degradation (PET [6]; 50 °C, 0 h): 0 µM
Proxy for plastic degradation (PET [6]; 50 °C, 48 h): 10 µM
Proxy for plastic degradation (PET [6]; 70 °C, 0 h): 0 µM
Proxy for plastic degradation (PET [6]; 70 °C, 24 h): 5 µM
Proxy for plastic degradation (PET [6]; 70 °C, 48 h): 3 µM
Proxy for plastic degradation (PET [6]; 70 °C, 72 h): 2 µM
Proxy for plastic degradation (BHET; 30 °C, 0 h): 0 µM
Proxy for plastic degradation (BHET; 30 °C, 40 h): 4 µM
Proxy for plastic degradation (BHET; 30 °C, 60 h): 5 µM
Proxy for plastic degradation (BHET; 50 °C, 0 h): 0 µM
Proxy for plastic degradation (BHET; 70 °C, 0 h): 0 µM
Proxy for plastic degradation (PET [7]; 30 °C, 0 h): 0 µM
Proxy for plastic degradation (PET [7]; 30 °C, 24 h): 240 µM
Proxy for plastic degradation (PET [7]; 50 °C, 0 h): 0 µM
Proxy for plastic degradation (PET [7]; 70 °C, 0 h): 0 µM
Proxy for plastic degradation (PET [7]; 70 °C, 24 h): 180 µM
Proxy for plastic degradation (PET [8]; 30 °C, 0 h): 0 µM
Proxy for plastic degradation (PET [8]; 30 °C, 24 h): 320 µM
Proxy for plastic degradation (PET [8]; 30 °C, 48 h): 380 µM
Proxy for plastic degradation (PET [8]; 30 °C, 72 h): 390 µM
Proxy for plastic degradation (PET [8]; 30 °C, 96 h): 400 µM
Proxy for plastic degradation (PET [8]; 50 °C, 0 h): 0 µM
Proxy for plastic degradation (PET [8]; 50 °C, 24 h): 500 µM
Proxy for plastic degradation (PET [8]; 50 °C, 48 h): 620 µM
Proxy for plastic degradation (PET [8]; 50 °C, 72 h): 630 µM
Proxy for plastic degradation (PET [8]; 50 °C, 96 h): 700 µM
Proxy for plastic degradation (PET [8]; 70 °C, 0 h): 0 µM
Proxy for plastic degradation (PET [8]; 70 °C, 24 h): 370 µM
Proxy for plastic degradation (PET [8]; 70 °C, 48 h): 410 µM
Proxy for plastic degradation (PET [8]; 70 °C, 72 h): 405 µM
Proxy for plastic degradation (PET [8]; 70 °C, 96 h): 410 µM
Proxy for plastic degradation (PET [9]; 30 °C): 0 µM
Proxy for plastic degradation (PET [9]; 50 °C): 0 µM
Proxy for plastic degradation (PET [9]; 70 °C): 0 µM

B2: unnamed (protein)
chain: MNFPRASRLMQAAVLGGLMAVSAAATAQTNPYARGPNPTAASLEASAGPFTVRSFTVSRPSGYGAGTVYYPTNAGGTVGAIAIVPGYTARQSSIKWWGPRLASHGFVVITIDTNSTLDQPSSRSSQQMAALRQVASLNGTSSSPIYGKVDTARMGVMGWSMGGGGSLISAANNPSLKAAAPQAPWDSSTNFSSVTVPTLIFACENDSIAPVNSSALPIYDSMSRNAKQFLEINGGSHSCANSGNSNQALIGKKGVAWMKRFMDNDTRYSTFACENPNSTRVSDFRTANCS
Proxy for plastic degradation (PET [5]; [10]): 0 µM
Proxy for plastic degradation (PET [5]; [11]): 60 µM
Proxy for plastic degradation (PET [6]; [10]): 0 µM
Proxy for plastic degradation (PET [6]; [12]): 26 µM
Proxy for plastic degradation (BHET; [10]): 0 µM
Proxy for plastic degradation (BHET; 30 °C, 20 h, part of the chain shown): 12 µM
Proxy for plastic degradation (BHET; 30 °C, 40 h, part of the chain shown): 19 µM
Proxy for plastic degradation (BHET; 30 °C, 60 h, part of the chain shown): 24 µM
Proxy for plastic degradation (BHET; 50 °C, 0 h, part of the chain shown): 0 µM
Proxy for plastic degradation (BHET; 50 °C, 40 h, part of the chain shown): 5.9 µM
Proxy for plastic degradation (BHET; 50 °C, 60 h, part of the chain shown): 5.6 µM
Proxy for plastic degradation (BHET; 70 °C, 0 h, part of the chain shown): 0 µM
Proxy for plastic degradation (BHET; 70 °C, 20 h, part of the chain shown): 2.3 µM
Proxy for plastic degradation (BHET; 70 °C, 40 h, part of the chain shown): 3 µM
Proxy for plastic degradation (BHET; 70 °C, 60 h, part of the chain shown): 1.85 µM
Proxy for plastic degradation (BHET; part of the chain shown): 4 µM
Proxy for plastic degradation (PET [7]; [10]): 0 µM
Proxy for plastic degradation (PET [7]; [11]): 505 µM
Proxy for plastic degradation (PET [7]; [13]): 460 µM
Proxy for plastic degradation (PET [8]; [10]): 0 µM
Proxy for plastic degradation (PET [8]; 30 °C, 24 h, part of the chain shown): 580 µM
Proxy for plastic degradation (PET [8]; [11]): 590 µM
Proxy for plastic degradation (PET [8]; [12]): 600 µM
Proxy for plastic degradation (PET [8]; [13]): 520 µM

B3: unnamed (protein)
chain: MQTNPYARGPNPTAASLEASAGPFTVRSFTVSRPSGYGAGTVYYPTNAGGTVGAIAIVPGYTARQSSIKWWGPRLASHGFVVITIDTNSTLDQPSSRSSQQMAALRQVASLNGTSSSPIYGKVDTARMGVMGWSMGGGGSLISAANNPSLKAAAPQAPWDSSTNFSSVTVPTLIFACENDSIAPVNSSALPIYDSMSRNAKQFLEINGGSHSCANSGNSNQALIGKKGVAWMKRFMDNDTRYSTFACENPNSTRVSDFRTANCSLEHHHHHH
Proxy for plastic degradation (BHET; 30 °C, 0 h): 0 µM
Proxy for plastic degradation (BHET; 30 °C, 20 h): 12 µM
Proxy for plastic degradation (BHET; 30 °C, 40 h): 20 µM
Proxy for plastic degradation (BHET; 30 °C, 60 h): 25 µM
Proxy for plastic degradation (BHET; 50 °C, 0 h): 0 µM
Proxy for plastic degradation (BHET; 50 °C, 20 h): 5 µM
Proxy for plastic degradation (BHET; 50 °C, 40 h): 5.5 µM
Proxy for plastic degradation (BHET; 50 °C, 60 h): 5.5 µM
Proxy for plastic degradation (BHET; 70 °C, 0 h): 0 µM
Proxy for plastic degradation (BHET; 70 °C, 20 h): 2.5 µM
Proxy for plastic degradation (BHET; 70 °C, 40 h): 3 µM
Proxy for plastic degradation (BHET; 70 °C, 60 h): 2 µM
Proxy for plastic degradation (PET [9]; 30 °C): 0 µM
